Reference: the supplement of paper PMC5998384

How the values were obtained:
HeLa Kyoto [1] = test: melting temperature (median over replicates), in situ; higher = more thermally stable
HeLa Kyoto [2] = test: solubility change mitosis vs G1/S (difference of NP-40 vs SDS log2 ratios) (log2 ratio difference); higher = more soluble in mitosis
HeLa Kyoto [3] = test: solubility in G1/S (NP-40 vs SDS abundance) (log2 ratio); higher = more soluble; conditions: cell cycle stage: G1/S
HeLa Kyoto [4] = test: thermal stability score vs G1/S (z-score of summed log2 fold changes over temperatures); higher = more thermally stable than in G1/S
[5] = cell cycle stage: early G1 (4.5 h after nocodazole release)
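Throughout, for melting temperature (median over replicates), in situ: HeLa Kyoto cells synchronized by double thymidine or nocodazole block, proteins quantified by TMT10plex mass spectrometry, three independent biological replicates.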
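Throughout, for solubility change mitosis vs G1/S (difference of NP-40 vs SDS log2 ratios): synchronized HeLa Kyoto cells (double thymidine block for G1/S, nocodazole release for mitosis), protein amounts in NP-40 versus SDS lysates quantified by mass spectrometry, three biological replicates.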
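Throughout, for solubility in G1/S (NP-40 vs SDS abundance): HeLa Kyoto cells arrested at G1/S by double thymidine block, proteins quantified by TMT10plex mass spectrometry in mild NP-40 versus SDS extracts, three biological replicates.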
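Throughout, for thermal stability score vs G1/S (z-score of summed log2 fold changes over temperatures): synchronized HeLa Kyoto cells, proteins quantified by TMT10plex mass spectrometry, three biological replicates, mitosis taken 0.5 h after nocodazole release, G1/S directly after double thymidine block.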

Sequence	melting temperature (HeLa Kyoto [1]; cell cycle stage: G1/S) [°C]	melting temperature (HeLa Kyoto [1]; cell cycle stage: mitosis) [°C]	solubility change mitosis (log2) (HeLa Kyoto [2])	solubility in G1/S (log2) (HeLa Kyoto [3])	thermal stability score (HeLa Kyoto [4]; [5])	thermal stability score (HeLa Kyoto [4]; cell cycle stage: mitosis)
MANINLKEITLIVGVVTACYWNSLFCGFVFDDVSAILDNKDLHPSTPLKTLFQNDFWGTPMSEERSHKSYRPLTVLTFRLNYLLSELKPMSYHLLNMIFHAVVSVIFLKVCKLFLDNKSSVIASLLFAVHPIHTEAVTGVVGRAELLSSIFFLAAFLSYTRSKGPDNSIIWTPIALTVFLVAVATLCKEQGITVVGICCVYEVFIAQGYTLPLLCTTAGQFLRGKGSIPFSMLQTLVKLIVLMFSTLLLVVIRVQVIQSQLPVFTRFDNPAAVSPTPTRQLTFNYLLPVNAWLLLNPSELCCDWTMGTIPLIESLLDIRNLATFTFFCFLGMLGVFSIRYSGDSSKTVLMALCLMALPFIPASNLFFPVGFVVAERVLYVPSMGFCILVAHGWQKISTKSVFKKLSWICLSMVILTHSLKTFHRNWDWESEYTLFMSALKVNKNNAKLWNNVGHALENEKNFERALKYFLQATHVQPDDIGAHMNVGRTYKNLNRTKEAEESYMMAKSLMPQIIPGKKYAARIAPNHLNVYINLANLIRANESRLEEADQLYRQAISMRPDFKQAYISRGELLLKMNKPLKAKEAYLKALELDRNNADLWYNLAIVHIELKEPNEALKKNFNRALELNPKHKLALFNSAIVMQESGEVKLRPEARKRLLSYINEEPLDANGYFNLGMLAMDDKKDNEAEIWMKKAIKLQADFRSALFNLALLYSQTAKELKALPILEELLRYYPDHIKGLILKGDILMNQKKDILGAKKCFERILEMDPSNVQGKHNLCVVYFEEKDLLKAERCLLETLALAPHEEYIQRHLNIVRDKISSSSFIEPIFPTSKISSVEGKKIPTESVKEIRGESRQTQIVKTSDNKSQSKSNKQLGKNGDEETPHKTTKDIKEIEKKRVAALKRLEEIERILNGE [TMTC3]	52.9	53.1	-0.0802	-0.0354	0.0389	0.555
MANNDAVLKRLEQKGAEADQIIEYLKQQVSLLKEKAILQATLREEKKLRVENAKLKKEIEELKQELIQAEIQNGVKQIPFPSGTPLHANSMVSENVIQSTAVTTVSSGTKEQIKGGTGDEKKAKEKIEKKGEKKEKKQQSIAGSADSKPIDVSRLDLRIGCIITARKHPDADSLYVEEVDVGEIAPRTVVSGLVNHVPLEQMQNRMVILLCNLKPAKMRGVLSQAMVMCASSPEKIEILAPPNGSVPGDRITFDAFPGEPDKELNPKKKIWEQIQPDLHTNDECVATYKGVPFEVKGKGVCRAQTMSNSGIK [AIMP1]	48.3	49.1	0.02	0.468	-0.0166	1.24
MANVSKKVSWSGRDRDDEEAAPLLRRTARPGGGTPLLNGAGPGAARQSPRSALFRVGHMSSVELDDELLDPDMDPPHPFPKEIPHNEKLLSLKYESLDYDNSENQLFLEEERRINHTAFRTVEIKRWVICALIGILTGLVACFIDIVVENLAGLKYRVIKGNIDKFTEKGGLSFSLLLWATLNAAFVLVGSVIVAFIEPVAAGSGIPQIKCFLNGVKIPHVVRLKTLVIKVSGVILSVVGGLAVGKEGPMIHSGSVIAAGISQGRSTSLKRDFKIFEYFRRDTEKRDFVSAGAAAGVSAAFGAPVGGVLFSLEEGASFWNQFLTWRIFFASMISTFTLNFVLSIYHGNMWDLSSPGLINFGRFDSEKMAYTIHEIPVFIAMGVVGGVLGAVFNALNYWLTMFRIRYIHRPCLQVIEAVLVAAVTATVAFVLIYSSRDCQPLQGGSMSYPLQLFCADGEYNSMAAAFFNTPEKSVVSLFHDPPGSYNPLTLGLFTLVYFFLACWTYGLTVSAGVFIPSLLIGAAWGRLFGISLSYLTGAAIWADPGKYALMGAAAQLGGIVRMTLSLTVIMMEATSNVTYGFPIMLVLMTAKIVGDVFIEGLYDMHIQLQSVPFLHWEAPVTSHSLTAREVMSTPVTCLRRREKVGVIVDVLSDTASNHNGFPVVEHADDTQPARLQGLILRSQLIVLLKHKVFVERSNLGLVQRRLRLKDFRDAYPRFPPIQSIHVSQDERECTMDLSEFMNPSPYTVPQEASLPRVFKLFRALGLRHLVVVDNRNQVVGLVTRKDLARYRLGKRGLEELSLAQT [CLCN7]	52.9	52.6	-0.116	-0.189	0.135	-0.102
MAPKKRPETQKTSEIVLRPRNKRSRSPLELEPEAKKLCAKGSGPSRRCDSDCLWVGLAGPQILPPCRSIVRTLHQHKLGRASWPSVQQGLQQSFLHTLDSYRILQKAAPFDRRATSLAWHPTHPSTVAVGSKGGDIMLWNFGIKDKPTFIKGIGAGGSITGLKFNPLNTNQFYASSMEGTTRLQDFKGNILRVFASSDTINIWFCSLDVSASSRMVVTGDNVGNVILLNMDGKELWNLRMHKKKVTHVALNPCCDWFLATASVDQTVKIWDLRQVRGKASFLYSLPHRHPVNAACFSPDGARLLTTDQKSEIRVYSASQWDCPLGLIPHPHRHFQHLTPIKAAWHPRYNLIVVGRYPDPNFKSCTPYELRTIDVFDGNSGKMMCQLYDPESSGISSLNEFNPMGDTLASAMGYHILIWSQEEARTRK [DDB2]	55.7	56.7	-0.078	-0.0537	-1.8	-2.6
MAPMGIRLSPLGVAVFCLLGLGVLYHLYSGFLAGRFSLFGLGGEPGGGAAGPAAAADGGTVDLREMLAVSVLAAVRGGDEVRRVRESNVLHEKSKGKTREGAEDKMTSGDVLSNRKMFYLLKTAFPSVQINTEEHVDAADQEVILWDHKIPEDILKEVTTPKEVPAESVTVWIDPLDATQEYTEDLRKYVTTMVCVAVNGKPMLGVIHKPFSEYTAWAMVDGGSNVKARSSYNEKTPRIVVSRSHSGMVKQVALQTFGNQTTIIPAGGAGYKVLALLDVPDKSQEKADLYIHVTYIKKWDICAGNAILKALGGHMTTLSGEEISYTGSDGIEGGLLASIRMNHQALVRKLPDLEKTGHK [IMPAD1]	59.1	58.9	-0.132	0.145	0.124	-1.11
MAPPGSSTVFLLALTIIASTWALTPTHYLTKHDVERLKASLDRPFTNLESAFYSIVGLSSLGAQVPDAKKACTYIRSNLDPSNVDSLFYAAQASQALSGCEISISNETKDLLLAAVSEDSSVTQIYHAVAALSGFGLPLASQEALSALTARLSKEETVLATVQALQTASHLSQQADLRSIVEEIEDLVARLDELGGVYLQFEEGLETTALFVAATYKLMDHVGTEPSIKEDQVIQLMNAIFSKKNFESLSEAFSVASAAAVLSHNRYHVPVVVVPEGSASDTHEQAILRLQVTNVLSQPLTQATVKLEHAKSVASRATVLQKTSFTPVGDVFELNFMNVKFSSGYYDFLVEVEGDNRYIANTVELRVKISTEVGITNVDLSTVDKDQSIAPKTTRVTYPAKAKGTFIADSHQNFALFFQLVDVNTGAELTPHQTFVRLHNQKTGQEVVFVAEPDNKNVYKFELDTSERKIEFDSASGTYTLYLIIGDATLKNPILWNVADVVIKFPEEEAPSTVLSQNLFTPKQEIQHLFREPEKRPPTVVSNTFTALILSPLLLLFALWIRIGANVSNFTFAPSTIIFHLGHAAMLGLMYVYWTQLNMFQTLKYLAILGSVTFLAGNRMLAQQAVKRTAH [RPN2]	54	53.7	-0.162	0.0246	1.07	2.44
MAPQSLPSSRMAPLGMLLGLLMAACFTFCLSHQNLKEFALTNPEKSSTKETERKETKAEEELDAEVLEVFHPTHEWQALQPGQAVPAGSHVRLNLQTGEREAKLQYEDKFRNNLKGKRLDINTNTYTSQDLKSALAKFKEGAEMESSKEDKARQAEVKRLFRPIEELKKDFDELNVVIETDMQIMVRLINKFNSSSSSLEEKIAALFDLEYYVHQMDNAQDLLSFGGLQVVINGLNSTEPLVKEYAAFVLGAAFSSNPKVQVEAIEGGALQKLLVILATEQPLTAKKKVLFALCSLLRHFPYAQRQFLKLGGLQVLRTLVQEKGTEVLAVRVVTLLYDLVTEKMFAEEEAELTQEMSPEKLQQYRQVHLLPGLWEQGWCEITAHLLALPEHDAREKVLQTLGVLLTTCRDRYRQDPQLGRTLASLQAEYQVLASLELQDGEDEGYFQELLGSVNSLLKELR [SIL1]	53.5	53.4	-0.0794	0.7	-0.386	0.264
